Patent US20210070882A1 (Hoffmann-La Roche, published 2021)
Several values for one entry are separate records, joined by “and”; a condition that tells them apart may be missing. Equal values may be shown once. Read-outs that look alike come from different tables or passages of the source.

What was measured:
human CD19 [1] = biological target: T1, human CD19 (human, UniProt P15391 20-556); experiment: cell-based or functional assay
T1 sequence (looked up): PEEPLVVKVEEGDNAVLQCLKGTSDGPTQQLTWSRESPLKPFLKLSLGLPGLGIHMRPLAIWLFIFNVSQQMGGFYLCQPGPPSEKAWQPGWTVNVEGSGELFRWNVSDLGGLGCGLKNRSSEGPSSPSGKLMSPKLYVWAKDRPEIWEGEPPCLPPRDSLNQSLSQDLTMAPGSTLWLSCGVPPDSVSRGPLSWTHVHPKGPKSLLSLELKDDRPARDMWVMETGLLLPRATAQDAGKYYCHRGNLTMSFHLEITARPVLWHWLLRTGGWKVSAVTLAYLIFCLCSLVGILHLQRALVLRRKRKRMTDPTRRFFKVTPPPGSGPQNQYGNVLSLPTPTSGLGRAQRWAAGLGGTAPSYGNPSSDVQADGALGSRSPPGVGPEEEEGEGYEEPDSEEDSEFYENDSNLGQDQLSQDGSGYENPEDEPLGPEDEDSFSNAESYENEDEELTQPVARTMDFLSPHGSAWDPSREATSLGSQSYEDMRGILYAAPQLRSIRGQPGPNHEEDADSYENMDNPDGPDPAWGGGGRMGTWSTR

human CD19 [2] = biological target: T1, human CD19; experiment: cell-based or functional assay; remark: listed apart in the source
human CD19 [3] = biological target: T1, human CD19; experiment: cell-based or functional assay; remark: listed apart in the source
human CD19 [4] = biological target: T1, human CD19; experiment: cell-based or functional assay; remark: listed apart in the source
human CD19 [5] = biological target: T1, human CD19; experiment: flow cytometry on CD19-expressing Raji cells
Protocol: (§1) The binding of CD19 IgGs and CD19 TCBs to human CD19- and CD3-expressing target cells was tested using CD19-expressing Burkitt's lymphoma cells (Raji) and CD3-expressing immortalized T lymphocyte line (Jurkat). Briefly, cells were harvested, counted, checked for viability and resuspended at 2×10⁶ cells/ml in FACS buffer (100 μl PBS 0.1% BSA). 100 μl of cell suspension (containing 0.2×10⁶ cells) were incubated in round-bottom 96-well plate for 30 min at 4° C. with increasing concentrations of the CD19 IgGs and CD19 TCBs (10 pM-200 nM), washed twice with cold PBS 0.1% BSA, re-incubated for further 30 min at 4° C. with the PE-conjugated AffiniPure F(ab′)2 Fragment goat anti-human IgG Fcg Fragment Specific secondary antibody (Jackson Immuno Research Lab PE #109-116-170), washed twice with cold PBS 0.1% BSA and immediately analyzed by FACS using a FACS Cantoll (Software FACS Diva) by gating live, DAPI-negative, cells.

human CD19 [6] = biological target: T1, human CD19; experiment: flow cytometry on CD19-expressing Raji cells; remark: listed apart in the source
Protocol: as §1

human CD19 [7] = biological target: T1, human CD19; experiment: flow cytometry on Nalm-6 cells and normal human B cells
Protocol: The binding of different CD19 TCB antibody formats (based on 8B8 clone) was assessed on human CD19-expressing target cells (Nalm-6 and normal human B cells) and human CD3-expressing target cells (CD4, CD8 T cells and Jurkat cells). The following CD19 TCB antibody formats were tested: molecule B as shown in FIG. 2B (named in this example “CD19 TCB_2+1_no charges_inverted”) and molecule A as shown in FIG. 2A (named in this example “CD19 TCB_2+1_charges CD19_inverted”). […] Briefly, cells were harvested, counted, checked for viability and resuspended at 1.5×10⁶ cells/ml in FACS buffer (100 μl PBS 0.1% BSA).

B1: Molecule D: 2+1 IgG CrossFab, inverted, without charge modifications (CH1/CL exchange in CD3 binder, murine CD19 binder 10C1) (bispecific antibody)
chain 1: QAVVTQEPSLTVSPGGTVTLTCGSSTGAVTTSNYANWVQEKPGQAFRGLIGGTNKRAPGTPARFSGSLLGGKAALTLSGAQPEDEAEYYCALWYSNLWVFGGGTKLTVLSSASTKGPSVFPLAPSSKSTSGGTAALGCLVKDYFPEPVTVSWNSGALTSGVHTFPAVLQSSGLYSLSSVVTVPSSSLGTQTYICNVNHKPSNTKVDKKVEPKSC
chain 2: EVQLQQSGPELVKPGASVKMSCKASGYTFTSYVMHWVKQKPGQGLEWIGYINPYNDGTKFNEKFKGKATLTSDKSSSTAYMELSSLTSEDSAVYYCTRGVYYYGSSQGDYWGQGTTLTVSSASTKGPSVFPLAPSSKSTSGGTAALGCLVKDYFPEPVTVSWNSGALTSGVHTFPAVLQSSGLYSLSSVVTVPSSSLGTQTYICNVNHKPSNTKVDKKVEPKSCDKTHTCPPCPAPEAAGGPSVFLFPPKPKDTLMISRTPEVTCVVVDVSHEDPEVKFNWYVDGVEVHNAKTKPREEQYNSTYRVVSVLTVLHQDWLNGKEYKCKVSNKALGAPIEKTISKAKGQPREPQVCTLPPSRDELTKNQVSLSCAVKGFYPSDIAVEWESNGQPENNYKTTPPVLDSDGSFFLVSKLTVDKSRWQQGNVFSCSVMHEALHNHYTQKSLSLSP
chain 3: not shown
chain 4: DAVMTQTPLSLPVSLGDQASISCRSSQSLENSNGNTYLNWYLQKPGQSPQLLIYRISNRFSGVPDRFNGSGSGTDFTLKISRVEAEDLGVYFCLQVTHVPWTFGGGTKLEIKRTVAAPSVFIFPPSDEQLKSGTASVVCLLNNFYPREAKVQWKVDNALQSGNSQESVTEQDSKDSTYSLSSTLTLSKADYEKHKVYACEVTHQGLSSPVTKSFNRGEC
notes: Same chain layout as molecule B (CD19 VL-CL light chain twice); also called CD19 TCB_10C1; CD19 TCB_10 C1
Human CD19 [1]
  Tumor lysis EC50 (pM), Nalm-6: 2.1 pM
  Tumor lysis EC50 (pM), SUDHL-4: 3.4 pM
Human CD19 [2]
  T cell activation EC50, CD25/CD4, Nalm-6: 11.8 pM
  T cell activation EC50, CD25/CD4, SUDHL-4: 9.7 pM
  T cell activation EC50, CD25/CD8, Nalm-6: 3 pM
  T cell activation EC50, CD25/CD8, SUDHL-4: 7.2 pM
  T cell activation EC50, CD69/CD4, Nalm-6: 5.6 pM
  T cell activation EC50, CD69/CD4, SUDHL-4: 5.2 pM
  T cell activation EC50, CD69/CD8, Nalm-6: 3.8 pM
  T cell activation EC50, CD69/CD8, SUDHL-4: 10.5 pM
Human CD19 [3]
  Tumor cell lysis Z-138 cells (21 h), EC50: 2.2 ng/mL
  Tumor cell lysis Z-138 cells (21 h), EC50 (pM): 11.1 pM
Human CD19 [4]
  T cell activation EC50 upon Z-138 lysis, CD25/CD4: 6.7 pM
  T cell activation EC50 upon Z-138 lysis, CD25/CD8: 5.9 pM
  T cell activation EC50 upon Z-138 lysis, CD69/CD4: 4.5 pM
  T cell activation EC50 upon Z-138 lysis, CD69/CD8: 5.7 pM
Human CD19 [5]
  EC50: 3000 to 8000 pM
Human CD19 [6]
  EC50: 7.7 nM and 1.49 µg/mL

B2: DP47 TCB (untargeted TCB having an identical structure as molecule B but with the DP47 binder instead of a CD19 binder) (bispecific antibody)
heavy 1: not shown
heavy 2: not shown
light 1: B1 chain 1
light 2: not shown
notes: Negative control; also called untargeted TCB control; copies: 1 + 1 + 1 + 2
Human CD19 [7]
  binding result: no binding
